Experimental data published in patent publication US7553667B2, “Regulation of gene expression using chromatin remodelling factors” (Her Majesty the Queen in right of Canada as represented by …, priority 2002, dated 2009).

Legend:
[1] = test system: lacZ reporter gene driven by promoter containing GAL4 DNA binding sites; experiment: Transactivation assay of bnKCP1 using yeast one-hybrid system; type: cell-based, yeast MaV203
Text: Effector plasmids pDBLeu-bnKCP1^1-160, pDBLeu-bnKCP1^1-80, pDBLeu-bnKCP1^81-215 and pDBLeu-bnKCP1 were constructed by ligating the PCR-amplified fragments ΔbnKCP1^1-160, ΔbnKCP1^1-80, ΔbnKCP1^81-215 and the coding region of bnKCP1 into the SalI/NotI sites of pDBLeu vector (GibcoL BRL) in-frame with the GAL4 DB sequence. The oligonucleotide primers for PCR amplification were as follows: […]
The three reporter genes, lacZ, HIS3 and URA3, which were chromosomally integrated in the genome of MaV203 yeast cells were driven by unrelated promoters containing GAL4 DNA binding sites (GibcoL BRL). For transient assays, the effector constructs or the negative control vector pDBLeu were transferred to the MaV203 yeast cells. The β-galactosidase activity was measured using CPRG (chlorophenol red-β-D-galactopyranoside) according to the manufacturer's instructions (GibcoL BRL). The MaV203 cells containing plasmids pDBLeu-HDA19 and pPC86-bnKCP1 were used as the positive control. In addition, we used three yeast control strains A, B, and C (GibcoL BRL), which were developed to contain plasmid pairs expressing fusion proteins with none, weak and moderately strong protein-protein interaction strength, respectively. Transient Expression of the GUS-bnCKP1 Fusion Protein

[2] = biological target: T1, Gcn5 (Arabidopsis thaliana, UniProt Q9AR19); experiment: Yeast two-hybrid interaction of bnKCP1 with Gcn5 (HIS3, URA3, lacZ reporters); type: cell-based; conditions: MaV203 yeast, Gcn5 fused to Gal4 DB, data not shown
T1 construct: expressed in transfected cells; host or cells: Saccharomyces cerevisiae MaV203
T1 sequence (Q9AR19 1-568): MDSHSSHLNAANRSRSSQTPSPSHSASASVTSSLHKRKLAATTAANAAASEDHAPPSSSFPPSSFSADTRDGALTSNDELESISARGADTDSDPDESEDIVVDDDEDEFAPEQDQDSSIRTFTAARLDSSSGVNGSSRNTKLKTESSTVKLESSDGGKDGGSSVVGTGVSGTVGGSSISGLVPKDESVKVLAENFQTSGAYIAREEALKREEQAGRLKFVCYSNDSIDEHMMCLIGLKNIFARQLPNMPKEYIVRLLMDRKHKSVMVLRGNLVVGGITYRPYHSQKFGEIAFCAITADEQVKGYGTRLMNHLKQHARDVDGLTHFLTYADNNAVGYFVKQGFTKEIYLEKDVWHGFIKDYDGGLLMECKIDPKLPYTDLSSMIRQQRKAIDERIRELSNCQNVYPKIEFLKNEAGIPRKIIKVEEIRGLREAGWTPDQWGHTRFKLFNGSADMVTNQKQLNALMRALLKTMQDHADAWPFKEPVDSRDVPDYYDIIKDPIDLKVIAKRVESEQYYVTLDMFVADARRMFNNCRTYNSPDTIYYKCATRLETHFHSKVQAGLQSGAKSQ
Text: To reassess the interaction of bnKCP1 with Gcn5 in vivo, the ORF of the Arabidopsis Gcn5 was fused to the yeast Gal4 DNA binding domain in pDBLeu vector and then used to transform yeast MaV203 cells expressing bnKCP1 fused to the yeast Gal4 activation domain in pPC86 vector.

[3] = biological target: T2, GST-Gcn5 (Arabidopsis thaliana, UniProt Q9AR19); experiment: GST pulldown affinity assay of bnKCP1 and mutants with GST-Gcn5; type: binding; conditions: [35S]Met-labeled in vitro translated protein
T2 construct: made in house; host or cells: E. coli BL21-CodonPlus (DE3)-RP
T2 sequence (Q9AR19 1-568): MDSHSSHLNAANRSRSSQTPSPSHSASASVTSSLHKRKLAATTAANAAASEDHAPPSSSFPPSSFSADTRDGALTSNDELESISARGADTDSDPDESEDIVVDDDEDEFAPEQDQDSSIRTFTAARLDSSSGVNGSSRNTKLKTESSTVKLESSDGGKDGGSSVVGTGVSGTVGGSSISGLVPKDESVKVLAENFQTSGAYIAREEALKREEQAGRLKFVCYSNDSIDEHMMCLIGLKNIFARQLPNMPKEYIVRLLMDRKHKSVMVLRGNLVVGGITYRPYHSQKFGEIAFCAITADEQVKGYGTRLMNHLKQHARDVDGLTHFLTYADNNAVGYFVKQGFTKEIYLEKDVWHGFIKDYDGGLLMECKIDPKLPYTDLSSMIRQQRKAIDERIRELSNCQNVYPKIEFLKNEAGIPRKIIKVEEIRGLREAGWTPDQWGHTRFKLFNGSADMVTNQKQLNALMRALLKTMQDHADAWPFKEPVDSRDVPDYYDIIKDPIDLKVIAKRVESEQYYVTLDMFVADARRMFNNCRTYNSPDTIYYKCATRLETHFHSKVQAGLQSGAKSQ
Text: (§1) The full coding regions of the Arabidopsis HAT, Gcn5 (Dr. M. Thomashow, Michigan State University, MI), and HDA19 (Accession # AF195547) were PCR amplified, sequence analyzed and inserted in-frame with the GST (glutathione s-transferase) into the SalI and NotI sites of vector pGEX-6P-2 (Amersham Pharmacia). The forward used for the amplification of Gcn5 was:
(§2) Recombinant pGEX-6P-2 plasmids were used to transform E. coli BL21-CodonPlus (DE3)-RP competent cells (Stratagene). Expression and purification under non-denaturing conditions were carried out as described by Gao et al. (Gao, M.-J. et al., 2002). The GST-Gcn5 and GST-HDA19 fusion proteins were analyzed by 7.5% SDS-PAGE (SDS-polyacrylamide gel electrophoresis) and western blotting with rabbit anti-GST-Pi polyclonal antibody (Chemicon) using ECL Western blotting analysis system (Amersham Pharmacia).
(§3) Full-length bnKCP1 and truncated mutant bnKCP1^1-160 and bnKCP1^1-80 proteins labeled with [^35S]methionine were produced using TNT-Quick Coupled Transcription/Translation System (Promega) according to the manufacture's instructions, with some modifications. A total of 1 μl of RNase inhibitor (GibcoL BRL) and 1 μl of protease inhibitors set (Roche) were added to the lysate reaction. After incubation for 90 min at 30° C., RNase A was added to the reaction to a final concentration of 0.2 mg/ml and incubated for 5 min at the same temperature.
In vitro protein interaction was detected with GST pulldown affinity assays as described by Ahmad et al. (1999) with some modifications. […] After washing six times with 1.2 ml of bead-binding buffer without BSA and EtBr but containing 12 μl of protease inhibitors set (Roche), the bound proteins were eluted with 30 μl of 2×SDS loading buffer, boiled for 2 min and analyzed by 12% SDS-PAGE. […]

[4] = biological target: T3, GST-HDA19 (Arabidopsis thaliana, UniProt O22446); experiment: GST pulldown affinity assay of bnKCP1 and mutants with GST-HDA19; type: binding; conditions: [35S]Met-labeled in vitro translated protein
T3 construct: made in house; host or cells: E. coli BL21-CodonPlus (DE3)-RP
T3 sequence (O22446 1-501): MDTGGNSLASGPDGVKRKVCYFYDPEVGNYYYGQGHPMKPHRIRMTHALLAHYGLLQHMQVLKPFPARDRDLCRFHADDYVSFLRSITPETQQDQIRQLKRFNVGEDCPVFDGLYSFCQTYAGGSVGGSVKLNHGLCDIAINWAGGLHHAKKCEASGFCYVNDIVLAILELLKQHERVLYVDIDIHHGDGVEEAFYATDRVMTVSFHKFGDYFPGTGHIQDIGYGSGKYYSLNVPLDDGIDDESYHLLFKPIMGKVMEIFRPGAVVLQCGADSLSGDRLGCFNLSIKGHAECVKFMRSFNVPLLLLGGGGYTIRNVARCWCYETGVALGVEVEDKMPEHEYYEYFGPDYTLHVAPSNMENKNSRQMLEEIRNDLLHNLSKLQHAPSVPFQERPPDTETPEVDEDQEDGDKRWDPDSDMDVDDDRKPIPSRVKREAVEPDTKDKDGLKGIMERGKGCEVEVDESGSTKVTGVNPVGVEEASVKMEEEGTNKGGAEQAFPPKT
Text: as §1, §2, §3
In vitro protein interaction was detected with GST pulldown affinity assays as described by Ahmad et al. (1999) with some modifications. Briefly, 6 μg of GST or 4 μg of GST-fusion protein was incubated with 5 μl of [^35S]Met-labeled translation mixture in 200 μl of bead-binding buffer (50 mM K-phosphate, pH 7.6, 450 mM KCl, 10 mM MgCl2, 10% glycerol, 1% Triton X-100, 1% BSA and 1 μl of diluted 1:12 protease inhibitors set) for 1 h at room temperature. After incubation, 20 μl of 50% slurry of glutathione-Sepharose beads containing 10 mg/ml of BSA and 4 μg of EtBr was mixed with the reaction mixture followed by gentle rotation for 1 h at 4° C. After washing six times with 1.2 ml of bead-binding buffer without BSA and EtBr but containing 12 μl of protease inhibitors set (Roche), the bound proteins were eluted with 30 μl of 2×SDS loading buffer, boiled for 2 min and analyzed by 12% SDS-PAGE. After electrophoresis, the gels were dried, treated with Amplify (Amersham Pharmacia) and subjected to fluorography.

[5] = test system: lacZ reporter gene driven by a promoter containing GAL4 DNA binding sites; experiment: Transactivation assay of BnSCL1 in yeast; type: cell-based, yeast MaV203
Text: MaV203 yeast cells expressing the lacZ reporter gene driven by a promoter containing GAL4 DNA binding sites (GibcoL BRL) were transformed with the […]. These vectors were constructed by ligating the PCR-amplified fragments, ΔBnSCL1^1-358, ΔBnSCL1^1-261, ΔBnSCL1^1-217, ΔBnSCL1^1-145, ΔBnSCL1^146-358 and ΔBnSCL1^218-434 and the entire coding region of BnSCL1, respectively, into the SalI and NotI sites of the vector pDBLeu (GibcoL BRL) in-frame with the GAL4 DB sequence. The oligonucleotide primers for the amplification were the same as those used for the in vivo protein interaction assays. The β-galactosidase activity was measured using CPRG according to the manufacturer's instructions (GibcoL BRL). In addition to the yeast strains A, B and C, the yeast strains D (GibcoL BRL) that contain plasmid pairs expressing fusion protein with strong interaction strength was used as controls.

[6] = biological target: T3, GST-HDA19; experiment: GST pulldown affinity assay of BnSCL1 and mutants with GST-HDA19; type: binding; conditions: [35S]Met-labeled in vitro translated protein
Protocol: The open reading frame (ORF) of the HDA19 was PCR amplified, sequence analyzed, inserted in-frame with the GST (glutathione s-transferase) into the vector pGEX-6P-2 (Amersham Pharmacia), and transformed into E. coli BL21-CodonPlus (DE3)-RP competent cells (Stratagene) as previously described (Gao et al., 2003). The recombinant HDA19 protein was expressed and purified under non-denaturing conditions as described by Gao et al, 2002). The GST-HDA19 fusion protein was analyzed by western blotting with rabbit anti-GST-Pi polyclonal antibody (Chemicon) using ECL Western blotting analysis system (Amersham Pharmacia).
The entire coding region of BnSCL1 and four fragments, BnSCL1^1-358, BnSCL1^1-261, BnSCL1^1-217, and BnSCL1^1-145 […], respectively, were amplified by PCR and cloned into the HindIII and XhoI sites of the expression vector pET-28b (Novagen) in-frame with the His-Tag sequence. […]
The TnT-Quick Coupled Transcription/Translation System (Promega) was used to produce the full-length BnSCL1 protein and the truncated mutants ΔBnSCL1^1-358, ΔBnSCL1^1-261, ΔBnSCL1^1-217 and ΔBnSCL1^1-145 labeled with [^35S]methionine as previously described (Gao et al., 2003). In vitro protein interaction was detected with GST pulldown affinity assays as described by Ahmad et al. (1999) and Gao et al., (2003).

Molecule | activation of reporter genes HIS3 and URA3 ([1]; data not shown) | stimulation of β-galactosidase activity ([1]; relative to GAL4 DB alone or yeast control strain A) | induction of reporter genes HIS3, URA3 and lacZ with Gcn5, compared with HDA19 [2] | in vitro binding to GST-Gcn5 [3] | in vitro binding to GST-HDA19 [4] | transactivation of reporter genes HIS3 and URA3 ([5]; data not shown) | increase of β-galactosidase activity ([5]; relative to vector pDBLeu alone or yeast control strain A) | in vitro binding to GST-HDA19 [6]
bnKCP1: B. napus KID-containing protein 1, 215 amino acid protein interacting with HDA19 (SEQ ID NO:71) (protein, left off: large carriers) MAGGGPTFSIELSAYGSDLPTDKASGDIPNEEGSGLSRVGSGIWSGRTVDYSSESSSSIGTPGDSEEEDEESEEDNDEEELGLASLRSLEDSLPSKGLSSHYKGKSKSFGNLGEIGSVKEVPKQENPLNKKRRLQIYNKLARKSFYSWQNPKSMPLLPVHEDNDDEEGDDGDLSDEERGGDVLARRPSFKNRALKSMSCFALSDLQEEEEEEEDE | modestly activated | about 8 fold | relatively lower level | bound | bound |  |  | 
BnSCL1: Brassica napus SCARECROW-like protein 1, SEQ ID NO:81 (protein, left off: large carriers) MKLQASSPQDNQPSNTTNNSTDSNHLSMDEHAMRSMDWDSIMKELEVDDDSAPYQLQPSSFNLPVFPDIDSSDVYPGPNQITGYGFNSLDSVDNGGFDYIEDLIRVVDCIESDELHLAHVVLSQLNQRLQTSAGRPLQRAAFYFKEALGSLLTGTNRNQLFSWSDIVQKIRAIKEFSGISPIPLFSHFTANQAILDSLSSQSSSPFVHVVDFEIGFGGQYASLMREIAEKSANGGFLRVTAVVAEDCAVETRLVKENLTQFAAEMKIRFQIEFVLMKTFEILSFKAIRFVDGERTVVLISPAIFRRVIGIAEFVNNLGRVSPNVVVFVDSEGCTETAGSGSFRREFVSAFEFYTMVLESLDAAAPPGDLVKKIVETFLLRPKISAAVETAANRRSAGQMTWREMLCAAGMRPVQLSQFADFQAECLLEKAQVRGFHVAKRQGELVLCWHGRALVATSAWRF |  |  |  |  |  | strongly transactivated | approximately 20 fold | bound
